Assay results reported in patent US6794159.

Target: Alanyl-human growth hormone

B1: Aeromonas aminopeptidase (protein)
chain: MPPITQQATVTAWLPQVDASQITGTISSLESFTNRFYTTTSGAQASDWIASEWQALSASLPNASVKQVSHSGYNQKSVVMTITGSEAPDEWIVIGGHLDSTIGSHTNEQSVAPGADDDASGIAAVTEVIRVLSENNFQPKRSIAFMAYAAEEVGLRGSQDLANQYKSEGKNVVSALQLDMTNYKGSAQDVVFITDYTDSNFTQYLTQLMDEYLPSLTYGFDTCGYACSDHASWHNAGYPAAMPFESKFNDYNPRIHTTQDTLANSDPTGSHAKKFTQLGLAYAIEMGSATGDTPTPGNQ
% cleavage (batch mode, 4-6° C., 16 hrs): 48%
% cleavage (batch mode, 4-6° C., 54 hrs): 65%
% cleavage (batch mode, 4-6° C., 89 hrs): 75%
% cleavage (batch mode, ambient, 16 hrs): 82%
% cleavage (batch mode, ambient, 54 hrs): > 97%
% cleavage (batch mode, ambient, 89 hrs): > 97%
% cleavage (recirculation, 28° C., 2.92 hrs, 1.06 passes, RP-HPLC): > 93%
% cleavage (recirculation, 28° C., 5.73 hrs, 2.08 passes, tryptic map): > 96.1%
% cleavage (recirculation, 28° C., 15.57 hrs, 5.66 passes, tryptic map): > 98.6%
% cleavage (recirculation, 28° C., 17.73 hrs, 6.45 passes, tryptic map): > 98.6%
% cleavage (recirculation, 28° C., 20.4 hrs, 7.42 passes, tryptic map): > 98.6%
% cleavage (recirculation, 28° C., 23.4 hrs, 8.8 passes, tryptic map): > 98.8%
% cleavage (recirculation, 28° C., 24.4 hrs, 8.87 passes, tryptic map): > 98.8%
% cleavage (recirculation, 28° C., 39.7 hrs, 14.44 passes, tryptic map): > 99.2%
removal of Ala from Ala-hGH by AAP in free solution (Ala-hGH 3 mg/ml; AAP 2.0, 3.0, 4.0 units/ml; room temperature; ES/MS): Most of the reactions for the three highest concentrations of AAP were complete by 6 hours

B2: Cu2+-substituted Aeromonas aminopeptidase (protein)
chain: B1 chain
rate of Ala-hGH cleavage, batch and recirculating column modes, compared with Zn-AAP (RP-HPLC): Cu^2+-substituted AAP was the most active against Ala-hGH
